One block for each substance: values may come before it.
What was measured:
[1] = target: Acidithiobacillus ferrooxidans CbbQ2 (Acidithiobacillus ferrooxidans ATCC 23270) (UniProt B7J5E4)
[2] = target: Acidithiobacillus ferrooxidans CbbQ2 (Acidithiobacillus ferrooxidans ATCC 23270) (UniProt B7J5E4); test: SEC + other: glycerol gradient sedimentation; combined Stokes radius/sedimentation analysis: Stokes radius from gel filtration, Svedberg coefficient from 5–30% glycerol gradients in buffer A (1 mg/ml, 35,000 r.p.m., 16 h, 4 °C); M=4,205 (SRs)
[3] = target: Acidithiobacillus ferrooxidans CbbQ2 (Acidithiobacillus ferrooxidans ATCC 23270) (UniProt B7J5E4); test: quantitative densitometry of SDS-PAGE; Coomassie-stained SDS–PAGE of the purified complexes (4 µg per lane), assuming equal binding of the dye
[4] = target: Acidithiobacillus ferrooxidans form I rubisco (L8S8) (Acidithiobacillus ferrooxidans ATCC 23270) (UniProt B7JA24)
[5] = target: Acidithiobacillus ferrooxidans form II rubisco (Acidithiobacillus ferrooxidans ATCC 23270) (UniProt B7J5E3)
[6] = target: AfM with E75 mutated to alanine (Acidithiobacillus ferrooxidans ATCC 23270)

basal ATPase activity of the Q2O2ΔC444 complex (min^−1 protomer CbbQ^−1) [1]: < 1
stoichiometry N (CbbO fragment per CbbQ hexamer) [2]: 1
stoichiometry N (CbbO fragments per 6 CbbQ subunits) [3]: 3.5
Substance: C-terminally truncated CbbO2 (residues 1–444) (domain or fragment)

stimulation of Q1O1 ATPase activity (0.27 µM oligomer) by saturating concentrations of stably inhibited AfLS (ER, ECMC) [4]: 2 fold
Substance: CbbQ1-CbbO1 hetero-oligomer (CbbQ6CbbO1) (complex)

stimulation of Q2O2 ATPase activity (0.27 µM oligomer) by saturating concentrations of stably inhibited AfM (ER, ECMC) [5]: 20 fold
rubisco activase activity of Q2O2 on AfM with E75 mutated to alanine [6]: 80 % reduction
Substance: CbbQ2-CbbO2 hetero-oligomer (CbbQ6CbbO1) (complex)
